Assay results: publication PMC9023281, “Polymerase theta-helicase promotes end joining by stripping single-stranded DNA-binding proteins and bridging DNA ends”

B1: dT50 (Poly-T50) (ssDNA)
DNA: TTTTTTTTTTTTTTTTTTTTTTTTTTTTTTTTTTTTTTTTTTTTTTTTTT
B2: Noncomp-647N (ssDNA)
DNA: TCCTCTTTTTCTTTTTTTCTTTTCTTCC

Assays:
[1] = target: T1, Polθ-h (Polθ helicase domain) (UniProt O75417 1-894); assay: EMSA; no PARP-1 modification; hyperbolic fit; Imaging Buffer: 40 mM Tris-HCl pH 8.0, 50 mM NaCl, 2 mM MgCl2, 1 mM DTT, 0.2 mg/ml BSA, 1 mM ATP; EMSA at room temperature, single-molecule at 37 C; PARP-1 tethering without BSA; displacement EMSA in 30 mM HEPES pH 8.0, 50 mM NaCl, 1.5 mM MgCl2, 1 mM DTT; conditions: protein: recombinant; tags: pET19 N-terminal 6xHis-TwinStrep-SUMO; chain copies: 4; label: 5'-32P in EMSA; unlabeled as challenge in tethering assay
T1 sequence (O75417 1-894): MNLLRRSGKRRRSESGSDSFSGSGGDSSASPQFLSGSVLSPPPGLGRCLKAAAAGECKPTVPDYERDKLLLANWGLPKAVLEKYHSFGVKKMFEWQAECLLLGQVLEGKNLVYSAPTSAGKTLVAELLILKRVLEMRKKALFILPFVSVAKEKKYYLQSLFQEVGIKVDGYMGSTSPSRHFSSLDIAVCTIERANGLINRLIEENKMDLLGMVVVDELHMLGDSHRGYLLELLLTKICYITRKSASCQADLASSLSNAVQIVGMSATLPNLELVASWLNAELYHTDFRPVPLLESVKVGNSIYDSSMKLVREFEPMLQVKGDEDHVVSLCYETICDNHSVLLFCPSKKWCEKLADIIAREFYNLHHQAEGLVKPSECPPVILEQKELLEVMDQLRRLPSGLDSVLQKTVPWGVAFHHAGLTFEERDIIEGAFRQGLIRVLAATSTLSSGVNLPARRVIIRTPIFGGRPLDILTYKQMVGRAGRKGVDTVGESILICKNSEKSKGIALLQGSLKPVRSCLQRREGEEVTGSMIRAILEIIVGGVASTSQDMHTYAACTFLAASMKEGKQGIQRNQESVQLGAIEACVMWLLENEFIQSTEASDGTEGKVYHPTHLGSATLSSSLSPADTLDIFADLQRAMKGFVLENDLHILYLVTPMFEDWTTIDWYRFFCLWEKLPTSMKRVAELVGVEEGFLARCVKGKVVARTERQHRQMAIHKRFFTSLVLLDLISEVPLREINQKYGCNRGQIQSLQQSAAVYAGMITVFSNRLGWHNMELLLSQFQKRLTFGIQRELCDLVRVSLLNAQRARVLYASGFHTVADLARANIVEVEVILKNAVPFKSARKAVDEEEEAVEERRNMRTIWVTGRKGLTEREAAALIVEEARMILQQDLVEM

[2] = target: T1, Polθ-h (Polθ helicase domain); assay: single-molecule ssDNA curtain oligo capture; captured in trans by Polθ-h on RPA-GFP-coated ssDNA; no capture without Polθ-h; Imaging Buffer: 40 mM Tris-HCl pH 8.0, 50 mM NaCl, 2 mM MgCl2, 1 mM DTT, 0.2 mg/ml BSA, 1 mM ATP; EMSA at room temperature, single-molecule at 37 C; PARP-1 tethering without BSA; displacement EMSA in 30 mM HEPES pH 8.0, 50 mM NaCl, 1.5 mM MgCl2, 1 mM DTT; conditions: protein: recombinant; tags: pET19 N-terminal 6xHis-TwinStrep-SUMO; chain copies: 4; label: 5'-Atto647N

| Binder | Kd [1] [nM] | binding result [2] |
| --- | --- | --- |
| B1 | 39 ± 12 |  |
| B2 |  | binds |
